Columns and labels:
DnfA [1] = target: T1, DnfA (Alcaligenes ammonioxydans, UniProt A0ABX8SXK4); assay: isothermal titration calorimetry; format: binding; conditions: 25 °C; hydroxylamine injected into enzyme
T1 construct: gene FE795_13025; full-length, 6xHis-tagged, pET-21a, E. coli BL21(DE3); dimer by gel filtration; diiron (residues Glu88, Glu123, His126, Glu182, His209, Glu213, His216)
T1 sequence (A0ABX8SXK4 1-317): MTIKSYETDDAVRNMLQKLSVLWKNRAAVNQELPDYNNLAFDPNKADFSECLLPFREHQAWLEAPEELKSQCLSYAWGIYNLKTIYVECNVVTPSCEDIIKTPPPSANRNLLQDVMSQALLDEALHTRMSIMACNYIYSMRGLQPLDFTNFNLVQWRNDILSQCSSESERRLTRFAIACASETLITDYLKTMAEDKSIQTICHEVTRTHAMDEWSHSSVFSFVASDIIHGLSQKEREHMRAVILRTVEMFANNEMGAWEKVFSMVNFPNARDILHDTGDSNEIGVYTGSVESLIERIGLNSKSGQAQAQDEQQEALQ

DnfA [2] = target: T1, DnfA; assay: differential scanning fluorimetry; format: binding; conditions: 10 mM compound, 100 μg/ml DnfA, 20 mM Tris-HCl pH 8.0, SYPRO Orange
[3] = target: DnfA hydroxylamine oxidase of Alcaligenes ammonioxydans HO-1 (Alcaligenes ammonioxydans HO-1); assay: SEC; gel filtration of native DnfA on Superdex 200 Increase 10/300 GL; mobile phase 20 mM Tris-HCl, 150 mM NaCl, pH 8.0; UV absorbance at 280 nm
[4] = substrate: NO; assay: Michaelis-Menten, nonlinear regression, N2-forming hydroxylamine oxidation; format: biochemical, Alcaligenes ammonioxydans; conditions: 10 μM DnfA, 100 μM FAD, 1 mM NADH, atmospheric O2, 15 to 400 μM NH2OH
Text: Michaelis-Menten, nonlinear regression, N2-forming hydroxylamine oxidation on DnfA | the Michaelis–Menten constant (Km) for hydroxylamine

NO [hydroxylamine] was tested, and the isothermal titration calorimetry (DnfA [1]) was “none of them interacted with ammonia, but DnfA bound to hydroxylamine” and the differential scanning fluorimetry (DnfA [2]) was “DSF test demonstrated also that DnfA bound hydroxylamine”.

In the case of “DnfA hydroxylamine oxidase of Alcaligenes ammonioxydans HO-1 (enzyme)”, the stoichiometry N [3] is reported as 2.

B1: DnfA (Alcaligenes ammonioxydans) (protein)
chain: T1 sequence (A0ABX8SXK4 1-317)
notes: full-length, 6xHis-tagged, pET-21a, E. coli BL21(DE3); dimer by gel filtration; diiron (residues Glu88, Glu123, His126, Glu182, His209, Glu213, His216)
Molecule B1 has a Km [4] of 92.9 ± 3.0 µM and a kcat [4] of 0.028 ± 0.001 s⁻¹.

Reference: paper PMC9478400, “Identification and characterization of a novel hydroxylamine oxidase, DnfA, that catalyzes the oxidation of hydroxylamine to N2” (The Journal of Biological Chemistry, 2022)
